The results in this text go back to patent US20220313845A1 (MYTHIC THERAPEUTICS, published 2022).

Residue numbers refer to the chain shown, from its start.

The target of assay [1] is T1, recombinant human DLL3 extracellular domain (R&D Systems, Cat #9749-DL) (human, UniProt Q9NYJ7 27-492).
T1 construct: Bought protein; also called soluble recombinant human DLL3 extracellular domain
T1 sequence: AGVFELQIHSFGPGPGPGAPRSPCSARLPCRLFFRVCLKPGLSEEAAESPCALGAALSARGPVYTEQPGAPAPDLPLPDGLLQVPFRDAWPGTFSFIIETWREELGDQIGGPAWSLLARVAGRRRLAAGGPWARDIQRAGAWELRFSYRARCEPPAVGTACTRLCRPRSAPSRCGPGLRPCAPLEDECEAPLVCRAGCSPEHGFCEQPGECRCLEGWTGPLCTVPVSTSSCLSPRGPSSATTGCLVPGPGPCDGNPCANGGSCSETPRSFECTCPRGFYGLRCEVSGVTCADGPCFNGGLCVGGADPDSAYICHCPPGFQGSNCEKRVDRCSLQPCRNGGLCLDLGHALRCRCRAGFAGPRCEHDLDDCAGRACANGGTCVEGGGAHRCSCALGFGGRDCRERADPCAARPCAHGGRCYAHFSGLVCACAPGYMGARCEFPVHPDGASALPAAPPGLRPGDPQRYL
The assay is described as follows: phage ELISA after three rounds of panning on biotinylated recombinant human DLL3. The source says: Multiple ABPC display systems, including phage display systems and those with ABPCs based on VH domains, have been described in the literature and can be used as a template for selection of pH engineered ABPCs using panning (Scroter C (2015) “A generic approach to engineer antibody pH switches using combinatorial histidine scanning libraries and yeast display” mAbs, 7:1, 138-151; Bonvin P (2015) “De novo isolation of antibodies with pH-dependent binding properties” mAbs, 7:2, 294-302; Traxlmayr P (2014) “Construction of pH-sensitive Her2-binding IgG1-Fc by directed evolution” Biotechnology Journal 9(8): 1013-1022; Gera N (2012) “Design of pH sensitive binding proteins from the hyperthermophilic Sso7 d scaffold” PLOS ONE 7 (11) e48928). pH engineered anti-DLL3 variants were selected by screening a proprietary humanized VH domain phage display library. Humanized VH library was screened against soluble recombinant human DLL3 extracellular domain (R&D Systems, Cat #9749-DL) in three rounds of selections with successively lower concentrations to isolate pH dependent anti-DLL3 VH domains. Briefly, the library was depleted for non-specific binders by incubating with Dynal M-280 streptavidin beads, bound antibodies were separated via a magnet and supernatant was collected for positive selection with human DLL3. Depleted library was further incubated with biotinylated recombinant human DLL3 at pH 7.4 for 1-3 hours at room temperature. Dynal streptavidin beads were added to the mixture to capture human DLL3 bound antibodies and washed 3× with a pH 7.4 buffer. Bound antibodies were eluted from beads using 0.1 M glycine pH 2.7 which was then neutralized with 1M Tris pH 7.4.

Another assay deals with T2, DLL3 on NCI-H82 cells (human, UniProt Q9NYJ7 27-618).
T2 construct: Endogenous DLL3 of NCI-H82 (DLL3+) cells; also called cell surface DLL3
T2 sequence: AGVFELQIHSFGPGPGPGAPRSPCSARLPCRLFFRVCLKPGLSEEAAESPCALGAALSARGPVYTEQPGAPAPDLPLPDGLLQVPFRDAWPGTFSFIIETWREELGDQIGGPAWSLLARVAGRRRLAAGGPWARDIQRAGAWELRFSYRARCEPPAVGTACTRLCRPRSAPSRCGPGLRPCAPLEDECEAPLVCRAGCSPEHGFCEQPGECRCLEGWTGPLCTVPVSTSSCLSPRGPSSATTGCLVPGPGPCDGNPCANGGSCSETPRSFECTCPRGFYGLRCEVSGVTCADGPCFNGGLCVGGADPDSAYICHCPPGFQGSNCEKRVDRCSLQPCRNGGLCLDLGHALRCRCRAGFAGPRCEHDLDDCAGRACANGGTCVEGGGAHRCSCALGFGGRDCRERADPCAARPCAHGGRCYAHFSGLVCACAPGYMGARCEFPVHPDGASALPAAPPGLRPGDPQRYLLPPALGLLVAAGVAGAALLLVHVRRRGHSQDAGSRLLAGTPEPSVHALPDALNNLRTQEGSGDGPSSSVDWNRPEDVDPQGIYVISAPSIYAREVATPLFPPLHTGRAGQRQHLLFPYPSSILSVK
Briefly: flow cytometry titration on NCI-H82 cells, Alexa Fluor 488 anti-human IgG; Example 37 calls the fitted value a dissociation constant KD. On the procedure:
FIGS. 20a-c: Characterization of binding affinity for anti-DLL3 mAbs. Anti-DLL3 mAbs were assayed for their binding to NCI-H82 cells.
Binding affinity of selected anti-DLL3 pH engineered antibody variants from Examples 9-13 were measured on NCI-H82 cells. 100,000 cells per well were resuspended in 900 μL FC buffer in a 96 well deep well plate. Rovalpituzumab and pH engineered antibody variants were serially diluted at a 1:3 dilution. 100 μL of diluted antibody was added to each well with final concentration ranging from […] and incubated for 2 hours at 4° C. Post incubation, the cells were spun at 2000 rpm for 2 min and supernatant was discarded. Cells were washed twice with 500 μL of ice-cold FC buffer and resuspended with 100 μL of FC buffer. The cells were then transferred from the deep well plate to 96 well round bottom plate, spun at 2000 rpm for 2 min and incubated with 100 μL of 10 μg/mL Alexa Fluor 488 conjugated goat anti-human IgG secondary antibody (ThermoFisher Scientific, A11013) for 30 min. Post incubation, cells were washed with FC buffer and resuspended in 100 μL of FC buffer to read on a BD Accuri C6 flow cytometer. Binding affinity was measured as a dissociation constant KD by GraphPad Prism assuming Michaelis-Menten binding kinetics. […]

B1: SEQ ID NO 612 (other)
VH: EVQLVESGGGLVQPGGSLRLSCAASGFNISSSDIGWVRRAPGKGEELVARIYPTNGYTRYADSVKGRFTISADTSKNTAYLQMNSLRAEDTAVYYCARYYYYDDDGYYYEHAIDYSGQGTLVTVSS
notes: also called Humanized VH variant #7
As to B1, the binding result in assay [1] was “binds”.

B2: SEQ ID NO 606 (other)
VH: EVQLVESGGGLVQPGGSLRLSCAASGFNISYYYIGWVRRAPGKGEELVARIYPTNGYTRYADSVKGRFTISADTSKNTAYLQMNSLRAEDTAVYYCARAYGDSDHYSEAIDYSGQGTLVTVSS
notes: also called Humanized VH variant #1
As to B2, in assay [1], the binding result was “binds”.

B3: SEQ ID NO 608 (other)
VH: EVQLVESGGGLVQPGGSLRLSCAASGFNISYYSIGWVRRAPGKGEELVARIYPTNGYTRYADSVKGRFTISADTSKNTAYLQMNSLRAEDTAVYYCARYHHSEYSDYYGYYSEYGFDYSGQGTLVTVRS
notes: also called Humanized VH variant #3
For B3, the binding result in assay [1] is given as “binds”.

B4: SEQ ID NO 616 (other)
VH: EVQLVESGGGLVQPGGSLRLSCAASGFNIHYEEIGWVRRAPGKGEELVARIYPTNGYTRYADSVKGRFTISADTSKNTAYLQMNSLRAEDTAVYYCARYSYYYHYGGGMDYSGQGTLVTVSS
notes: also called Humanized VH variant #11
Regarding B4, the binding result in assay [1] was “binds”.

B5: SEQ ID NO 615 (other)
VH: EVQLVESGGGLVQPGGSLRLSCAASGFNIHSYYIGWVRRAPGKGEELVARIYPTNGYTRYADSVKGRFTISADTSKNTAYLQMNSLRAEDTAVYYCARGYYGHEYDYHYDYYGGGFDYSGQGTLVTVSS
notes: also called Humanized VH variant #10
On to B5, for which the binding result in assay [1] is listed as “binds”.

B6: rovalpituzumab (antibody, V domains shown)
VH: QVQLVQSGAEVKKPGASVKVSCKASGYTFTNYGMNWVRQAPGQGLEWMGWINTYTGEPTYADDFKGRVTMTTDTSTSTAYMELRSLRSDDTAVYYCARIGDSSPSDYWGQGTLVTVSS
VL: EIVMTQSPATLSVSPGERATLSCKASQSVSNDVVWYQQKPGQAPRLLIYYASNRYTGIPARFSGSGSGTEFTLTISSLQSEDFAVYYCQQDYTSPWTFGQGTKLEIK
notes: IgG expressed in Expi293; the entries called heavy and light chain are variable domains; also called MYT0638
Regarding B6, the affinity in the assay with DLL3 on NCI-H82 cells, expressed as KD, was 8 pM.

B7: SEQ ID NO 613 (other)
VH: EVQLVESGGGLVQPGGSLRLSCAASGFNIEYESIGWVRRAPGKGEELVARIYPTNGYTRYADSVKGRFTISADTSKNTAYLQMNSLRAEDTAVYYCARSEYSHYSGSHHYYALDYSGQGTLVTVSS
notes: also called Humanized VH variant #8
Turning to B7, the binding result in assay [1] is given as “binds”.

B8: SEQ ID NO 610 (other)
VH: EVQLVESGGGLVQPGGSLRLSCAASGFNIEYYSIGWVRRAPGKGEELVARIYPTNGYTRYADSVKGRFTISADTSKNTAYLQMNSLRAEDTAVYYCAREYYSYHDEYEYDYALDYSGQGTLVTVSS
notes: also called Humanized VH variant #5
Regarding B8, the binding result in assay [1] is listed as “binds”.

B9: SEQ ID NO 620 (other)
VH: B7 VH with E30Y, Y31D, E32H, E100S, H103G, S105Y
notes: also called Humanized VH variant #15
Regarding B9, the binding result in assay [1] is recorded as “binds”.

B10: SEQ ID NO 611 (other)
VH: EVQLVESGGGLVQPGGSLRLSCAASGFNIEHYSIGWVRRAPGKGEELVARIYPTNGYTRYADSVKGRFTISADTSKNTAYLQMNSLRAEDTAVYYCARHHYYGYHSGYHHYAIDYSGQGTLVTVSS
notes: also called Humanized VH variant #6
Regarding B10, the binding result in assay [1] is on record as “binds”.

B11: SEQ ID NO 619 (other)
VH: B7 VH with E30S, Y31H, E32Y, R39H, S99H, E100H, S105D, S107H, H108S, A112G
notes: also called Humanized VH variant #14
B11: the binding result in assay [1] is recorded as “binds”.

B12: SEQ ID NO 614 (other)
VH: B7 VH with E30S, Y31E, E32H, E100Y, S102H, H103G, G106H, S107G, L113I
notes: also called Humanized VH variant #9
As for B12, the binding result in assay [1] is recorded as “binds”.

B13: SEQ ID NO 607 (other)
VH: B7 VH with E30Y, Y31S, E100Y, S105D, S107H, H108Y, A112G
notes: also called Humanized VH variant #2
Take B13: the binding result in assay [1] is listed as “binds”.

B14: SEQ ID NO 618 (other)
VH: B7 VH with E30S, Y31E, E100Y, S102A, G106A, S107G, H108Y, H109Y
notes: also called Humanized VH variant #13
Consider B14, for which the binding result in assay [1] is “binds”.

B15: SEQ ID NO 609 (other)
VH: B10 VH with E30Y, H31S, H99E, Y102H, H105Y, S106D, Y108A, H110Y, I113L
notes: also called Humanized VH variant #4
In the case of B15, the binding result in assay [1] is on record as “binds”.
